Literature values as cited in publication PMC6934455, “Molecular Dynamics model of peptide-protein conjugation: case study of covalent complex between Sos1 peptide and N-terminal SH3 domain from Grb2” (Scientific Reports, 2019).

Biological target: Sos1 peptide (Homo sapiens) (UniProt Q07889)

Sequence of Grb2 N-terminal SH3 (P62993 1-58): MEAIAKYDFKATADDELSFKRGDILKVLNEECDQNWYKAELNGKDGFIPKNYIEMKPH

Kd: 3.5 µM
Substance: Grb2 N-terminal SH3 (from UniProt P62993)
